The text below walks through data of PMC9029656.

B1: reference wild-type (WT) peptide (unmodified NW peptide) prohibitin 1 (PHB1), endogenous in human blood monocytes [human (endogenous in blood monocytes)] (parent)
chain 1: NWYLPWLGTNDW
chain 2: MAAKVFESIGKFGLALAVAGGVVNSALYNVDAGHRAVIFDRFRGVQDIVVGEGTHFLIPWVQKPIIFDCRSRPRNVPVITGSKDLQNVNITLRILFRPVASQLPRIFTSIGEDYDERVLPSITTEILKSVVARFDAGELITQRELVSRQVSDDLTERAATFGLILDDVSLTHLTFGKEFTEAVEAKQVAQQEAERARFVVEKAEQQKKAAIISAEGDSKAAELIANSLATAGDGLIELRKLEAAEDIAYQLSRSRNITYLPAGQSVLLQLPQ

In this test the parent is B1. Description: flow cytometry competition assay on monocytes. Conditions: with prohibitin 1 (PHB1). For orientation: A flow cytometer gives signals particle by particle.
Where [1] appears, read: competitor 2.5 µg/ml, NW peptide 0.05 µg/mL, parent: 50, read off a plot.
Setting [2] is: competitor 5 µg/ml, NW peptide 0.05 µg/mL, parent: 82, read off a plot.
The mark [3] stands for this setting: competitor 10 µg/ml, NW peptide 0.05 µg/mL, parent: 92, read off a plot.
[4] abbreviates: competitor 20 µg/ml, NW peptide 0.05 µg/mL, parent: 95, read off a plot.
[5] abbreviates: competitor 2.5 µg/ml, experimental conditions as in Figure 7, parent: 45, read off a plot.
[6] abbreviates: competitor 20 µg/ml, experimental conditions as in Figure 7, parent: 93, read off a plot.
Where [7] appears, read: competitor 5 µg/ml, experimental conditions as in Figure 7, parent: 60, read off a plot.
Where [8] appears, read: competitor 10 µg/ml, experimental conditions as in Figure 7, parent: 85, read off a plot.

Take chain 1 NWYLPWLGTNAW: the screen value runs as follows: under setting [1], 47%; under setting [2], 80%; under setting [3], 85%; under setting [4], 98%.

With chain 1 NWYLPWAGTNDW, the screen value runs as follows: under setting [1], 0%; under setting [2], 0%; under setting [3], 0%; under setting [4], 2.5%.

chain 1 NWYLPWLGTNDA: the screen value by setting is: under setting [1], 0%; under setting [2], 9%; under setting [3], 10%; under setting [4], 8%.

On to chain 1 NWYAPWLGTNDW, for which the screen value under setting [1] worked out at 0%, the screen value under setting [2] was determined as 0%, the screen value under setting [3] amounted to 2.5% and the screen value under setting [4] is 0%.

For chain 1 NYYLPYLGTNDY, the screen value by setting is: under setting [5], 5%; under setting [6], 3%.

For the variant chain 1 NWYLPWLGANDW, the screen value is, setting by setting: under setting [1], 10%; under setting [2], 20%; under setting [3], 60%; under setting [4], 80%.

Consider chain 1 NFYLPFLGTNDF, for which the screen value is 7% under setting [7], 3% under setting [8] and 4% under setting [6].

chain 1 NWALPWLGTNDW: the screen value was 23% under setting [1], 54% under setting [2], 56% under setting [3] and 68% under setting [4].

Regarding chain 1 NAYLPWLGTNDW, the screen value runs as follows: under setting [1], 0%; under setting [2], 0%; under setting [3], 0%; under setting [4], 2.5%.

Regarding chain 1 AWYLPWLGTNDW, the screen value by setting is: under setting [1], 30%; under setting [2], 45%; under setting [3], 67%; under setting [4], 90%.

On to chain 1 NWYLPWLGTADW, for which the screen value is, setting by setting: under setting [1], 56%; under setting [2], 70%; under setting [3], 86%; under setting [4], 95%.

With chain 1 NWYLPWLATNDW, the screen value under setting [1] came out at 0%, the screen value under setting [2] turned out to be 10%, the screen value under setting [3] was determined as 45% and the screen value under setting [4] came out at 65%.

In the case of chain 1 NWYVPWVGTNDW, the screen value came to 50% under setting [5], 55% under setting [7], 86% under setting [8] and 95% under setting [6].

With chain 1 NWYLAWLGTNDW, the screen value came to 0% under setting [1], 12% under setting [2], 30% under setting [3] and 65% under setting [4].

chain 1 NWYLPALGTNDW: the screen value runs as follows: under setting [1], 0%; under setting [2], 0%; under setting [3], 8%; under setting [4], 12%.
